From publication PMC7615827

Biological target: ABD-AS25 (albumin binding domain fused to monobody AS25; ABD-…-AS25-Cys)
Assay: ITC

Kd [nM] | stoichiometry N | Substance
42.4 | 1 | Bcr-Abl SH2 domain (from UniProt P00519 127-217) (domain or fragment)
5.11 |  | Human Serum Albumin (from UniProt P02768 25-609) (natural protein)
